Where a chain is given by its changes, count along the chain named. Numbers in names are those of the source.

Test [1] addresses T1, MbNb207^cHopQ.
T1 construct: also called cHopQNbGFP207; 58 kDa Megabody
Briefly: BLI (Octet), biotinylated MbNb207^cHopQ on streptavidin sensors.

Test [2] has as its target T1, MbNb207^cHopQ. Briefly: co-crystal structure.

B1: MbNb60^cYgjkE2 (designed binder)
chain: QVQLVESGGGLVYKEETQSGLNNYARVVEKGQYDSLEIPAQVAASWESGRDDAAVFGFIDKEQLDKYVANGGKRSDWTVKFAENRSQDGTLLGYSLLQESVDQASYMYSDNHYLAEMATILGKPEEAKRYRQLAQQLADYINTCMFDPTTQFYYDVRIEDKPLANGCAGKPIVERGKGPEGWSPLFNGAATQANADAVVKVMLDPKEFNTFVPLGTAALTNPAFGADIYWRGRVWVDQFWFGLKGMERYGYRDDALKLADTFFRHAKGLTADGPIQENYNPLTGAQQGAPNFSWSAAHLYMLYNDFFRKQASGGGSGGGGSGGGGSGNADNYKNVINRTGAPQYMKDYDYDDHQRFNPFFDLGAWHGHLLPDGPNTMGGFPGVALLTEEYINFMASNFDRLTVWQDGKKVDFTLEAYSIPGALVQKLTAKDVQVEMTLRFATPRTSLLETKITSNKPLDLVWDGELLEKLEAKEGKPLSDKTIAGEYPDYQRKISATRDGLKVTFGKVRATWDLLTSGESEYQVHKSLPVQTEINGNRFTSKAHINGSTTLYTTYSHLLTAQEVSKEQMQIRDILARPAFYLTASQQRWEEYLKKGLTNPDATPEQTRVAVKAIETLNGNWRSPGGAVKFNTVTPSVTGRWFSGNQTWPWDTWKQAFAMAHFNPDIAKENIRAVFSWQIQPGDSVRPQDVGFVPDLIAWNLSPERGGDGGNWNERNTKPSLAAWSVMEVYNVTQDKTWVAEMYPKLVAYHDWWLRNRDHNGNGVPEYGATRDKAHNTESGEMLFTVKKDSLRLSCAASGFTFSRYAMSWVRQAPGKGPEWVSAINSPGGSTSYADSVKGRFTISRDNAKNTLYLQMNSLKPDDTAVYYCAKYERATEWGHTIVAVTPLLDGVHDYWGQGTQVTVSSHHHHHHEPEA
notes: also called Mb^Nb60cYgjkQE2
Regarding B1, in the test with MbNb207^cHopQ [1], the binding result was “binds”.

B2: MbNb60^c7HopQ mut2 (N277K, T270R) (designed binder)
chain: QVQLVESGGGLVQTKTTTSVIDTTNDAQNLLTQAQTIVNTLKDYCPILIAKSSSSNGGTNNANTPSWQTAGGGKNSCATFGAEFSAASDMINNAQKIVQETQQLSANQPKNITQPHNLNLNSPSSLTALAQKMLKNAQSQAEILKLANQVESDFNKLSSGHLKDYIGKCDASAISSANMTMQNQKNNWGNGCAGVEETQSLLKTSAADFNNQTPQINQAQNLANTLIQELGNNTYEQLSRLLTNDNGTNSKTSAQAINQAVNNLNERAKRLAGGTTKSPAYQATLLALRSVLGLWNSMGYAVICGGYTKSPGENNQKDFHYTDENGNGTTINCGGSTNSNGTHSYNGTNTLKADKNVSLSIEQYEKIHEAYQILSKALKQAGLAPLNSKGEKLEAHVTTSKYGSLRLSCAASGFTFSRYAMSWVRQAPGKGPEWVSAINSPGGSTSYADSVKGRFTISRDNAKNTLYLQMNSLKPDDTAVYYCAKYERATEWGHTIVAVTPLLDGVHDYWGQGTQVTVSSHHHHHHEPEA
notes: also called MbNb60^cHopQmut2; MbNb60^c7HopQ N277K T270R
As to B2, the binding result with MbNb207^cHopQ [1] was “binds”.

B3: MbNb60^c7HopQ mut3 (N277K, T270R, E197R) (designed binder)
chain: B2 chain with E197R
notes: also called MbNb60^cHopQmut3; MbNb60^c7HopQ N277K T270R E197R
Turning to B3, in the test with MbNb207^cHopQ [1], the binding result was “binds”.

B4: Nb60 HopQ-specific Nanobody (VHH)
VHH: QVQLQESGGGLVQPGGSLRLSCAASGFTFSRYAMSWVRQAPGKGPEWVSAINSPGGSTSYADSVKGRFTISRDNAKNTLYLQMNSLKPDDTAVYYCAKYERATEWGHTIVAVTPLLDGVHDYWGQGTQVTVSS
notes: also called cHopQ-specific Nanobody
Turning to B4, in the test with MbNb207^cHopQ [2], the binding result is “binds”.

These data come from patent publication US20210206880A1 (published 2021).
